# Test results reported in PMC2783839.
# T1: NEUROG2 (cNEUROG2) (Gallus gallus (chick)?, UniProt Q9YH82 1-213)
# T1 sequence: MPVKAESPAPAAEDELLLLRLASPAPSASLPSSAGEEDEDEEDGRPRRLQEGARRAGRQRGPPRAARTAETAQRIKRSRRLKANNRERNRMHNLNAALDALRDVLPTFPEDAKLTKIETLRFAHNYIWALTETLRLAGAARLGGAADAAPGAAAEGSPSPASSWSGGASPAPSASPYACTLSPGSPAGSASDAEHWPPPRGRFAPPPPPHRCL
# Target: T1, NEUROG2 (cNEUROG2)
# Assay: EMSA
binder,measurement,value
(Ebox)3 (dsDNA) DNA 1: GATCCAGGCAGGTGGCAGGCAGGTGGCAGGCAGGTGGCAGATC DNA 2: GATCTGCCACCTGCCTGCCACCTGCCTGCCACCTGCCTGGATC,binding result,no binding
